Measured values reported in paper PMC9482650, “Quantitative fragmentomics allow affinity mapping of interactomes” (Nature Communications, 2022).

Tests used:
Experiment in all cases: holdup assay
Set-up in all cases: key: below the threshold = too weak to quantify, mostly under pKd 3.1 to 4
Inadl_6, Q8NI35 = biological target: Inadl_6, Q8NI35
SIPA1L2, Q9P2F8 = biological target: T1, SIPA1L2, Q9P2F8
T1 sequence (Q9P2F8 945-1036, limits assumed, looked up): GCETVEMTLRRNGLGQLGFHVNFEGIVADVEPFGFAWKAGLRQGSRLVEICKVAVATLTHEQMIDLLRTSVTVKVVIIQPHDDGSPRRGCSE

LNX1_2, Q8TBB1 = biological target: LNX1_2, Q8TBB1
FRMPD3, Q5JV73 = biological target: FRMPD3, Q5JV73
SCRIB_3, Q14160 = biological target: SCRIB_3, Q14160
MPP2, Q14168 = biological target: T2, MPP2, Q14168
T2 sequence (Q14168 180-250, limits assumed, looked up): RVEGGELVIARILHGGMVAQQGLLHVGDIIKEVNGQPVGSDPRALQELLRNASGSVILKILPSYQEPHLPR

ARHGAP21, Q5T5U3 = biological target: T3, ARHGAP21, Q5T5U3
T3 sequence (Q5T5U3 45-169, limits assumed, looked up): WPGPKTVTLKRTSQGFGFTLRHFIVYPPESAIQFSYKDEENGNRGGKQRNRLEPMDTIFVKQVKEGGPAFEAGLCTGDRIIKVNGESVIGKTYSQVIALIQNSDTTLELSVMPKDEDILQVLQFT

SNTG2, Q9NY99 = biological target: T4, SNTG2, Q9NY99
T4 sequence (Q9NY99 68-166, limits assumed, looked up): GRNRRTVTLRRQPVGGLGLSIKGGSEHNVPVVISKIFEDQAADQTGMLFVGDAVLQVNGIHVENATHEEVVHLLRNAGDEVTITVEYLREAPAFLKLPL

AHNAK1, Q09666 = biological target: AHNAK1, Q09666
GRASP, Q7Z6J2 = biological target: GRASP, Q7Z6J2
PTPN13_1, Q12923 = biological target: T5, PTPN13_1, Q12923
T5 sequence (Q12923 1088-1188, limits assumed, looked up): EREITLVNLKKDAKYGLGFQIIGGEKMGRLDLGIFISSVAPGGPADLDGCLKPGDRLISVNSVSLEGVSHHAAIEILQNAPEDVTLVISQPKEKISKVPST

SHANK1, Q9Y566 = biological target: T6, SHANK1, Q9Y566
T6 sequence (Q9Y566 658-767, limits assumed, looked up): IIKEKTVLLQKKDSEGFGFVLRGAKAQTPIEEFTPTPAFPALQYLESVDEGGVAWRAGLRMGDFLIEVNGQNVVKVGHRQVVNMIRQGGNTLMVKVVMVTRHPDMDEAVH

SCRIB_2, Q14160 = biological target: SCRIB_2, Q14160
SYNJ2BP, P57105 = biological target: T7, SYNJ2BP, P57105
T7 sequence (P57105 8-110, limits assumed, looked up): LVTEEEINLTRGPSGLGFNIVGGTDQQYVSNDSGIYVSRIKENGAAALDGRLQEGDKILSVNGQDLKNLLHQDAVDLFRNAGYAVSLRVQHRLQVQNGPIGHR

LRRC7, Q96NW7 = biological target: T8, LRRC7, Q96NW7
T8 sequence (Q96NW7 1440-1537, limits assumed, looked up): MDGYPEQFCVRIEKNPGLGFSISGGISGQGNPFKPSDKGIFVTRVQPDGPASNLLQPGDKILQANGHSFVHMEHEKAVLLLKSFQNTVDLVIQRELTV

SCRIB_1, Q14160 = biological target: SCRIB_1, Q14160
PTPN3, P26045 = biological target: PTPN3, P26045
DLG3_3, Q92796 = biological target: T9, DLG3_3, Q92796
T9 sequence (Q92796 374-475, limits assumed, looked up): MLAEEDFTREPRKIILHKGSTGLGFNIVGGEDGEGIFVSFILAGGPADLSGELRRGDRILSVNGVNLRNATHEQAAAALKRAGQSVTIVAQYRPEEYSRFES

DLG3_2, Q92796 = biological target: T10, DLG3_2, Q92796
T10 sequence (Q92796 221-321, limits assumed, looked up): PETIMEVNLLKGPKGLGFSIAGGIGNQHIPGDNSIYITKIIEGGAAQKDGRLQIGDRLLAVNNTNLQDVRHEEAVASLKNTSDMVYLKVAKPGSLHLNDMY

NHERF2_2, Q15599 = biological target: NHERF2_2, Q15599
DLG2_2, Q15700 = biological target: DLG2_2, Q15700
NHERF4_2, Q86UT5 = biological target: NHERF4_2, Q86UT5
TJP3_3, O95049 = biological target: T11, TJP3_3, O95049
T11 sequence (O95049 375-456, limits assumed, looked up): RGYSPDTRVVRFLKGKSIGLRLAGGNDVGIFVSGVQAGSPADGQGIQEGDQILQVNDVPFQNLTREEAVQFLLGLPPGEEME

DLG4_2, P78352 = biological target: DLG4_2, P78352
DFNB31_1, Q9P202 = biological target: T12, DFNB31_1, Q9P202
T12 sequence (Q9P202 135-233, limits assumed, looked up): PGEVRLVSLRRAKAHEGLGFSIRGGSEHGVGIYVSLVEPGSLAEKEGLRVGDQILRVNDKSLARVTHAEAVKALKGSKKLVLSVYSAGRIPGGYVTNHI

PDZRN4_1, Q6ZMN7 = biological target: PDZRN4_1, Q6ZMN7
[1] = plain residues with an end cap or a label only (N-terminal biotin on a linker: ttds)
[2] = plain residues with an end cap or a label only (N-terminal biotin on a linker: ahx)

Chain of NHERF2_2, Q15599 (Q15599 142-238): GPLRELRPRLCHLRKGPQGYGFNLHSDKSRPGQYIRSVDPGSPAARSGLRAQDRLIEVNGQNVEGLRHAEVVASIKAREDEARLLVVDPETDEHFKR
Chain of AHNAK1, Q09666 (Q09666 4-100): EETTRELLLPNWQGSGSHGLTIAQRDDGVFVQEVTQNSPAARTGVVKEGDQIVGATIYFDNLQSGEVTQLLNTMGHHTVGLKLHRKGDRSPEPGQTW
Chain of SCRIB_1, Q14160 (Q14160 718-814): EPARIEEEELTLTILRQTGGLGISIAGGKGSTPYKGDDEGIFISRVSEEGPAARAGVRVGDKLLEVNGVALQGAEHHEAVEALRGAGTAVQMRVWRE
Chain of SCRIB_2, Q14160 (Q14160 857-960): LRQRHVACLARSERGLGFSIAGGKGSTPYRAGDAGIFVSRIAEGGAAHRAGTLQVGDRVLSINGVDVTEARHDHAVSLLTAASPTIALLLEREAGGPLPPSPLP
Chain of PTPN3, P26045 (P26045 505-587): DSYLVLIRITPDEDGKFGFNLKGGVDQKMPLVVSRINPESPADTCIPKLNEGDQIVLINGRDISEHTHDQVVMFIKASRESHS
Chain of NHERF4_2, Q86UT5 (Q86UT5 220-308): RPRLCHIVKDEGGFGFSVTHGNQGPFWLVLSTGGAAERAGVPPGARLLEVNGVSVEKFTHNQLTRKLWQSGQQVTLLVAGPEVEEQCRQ
Chain of SCRIB_3, Q14160 (Q14160 999-1103): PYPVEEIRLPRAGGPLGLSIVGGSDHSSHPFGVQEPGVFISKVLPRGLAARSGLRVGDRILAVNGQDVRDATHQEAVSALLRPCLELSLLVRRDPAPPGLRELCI
Chain of DLG4_2, P78352 (P78352 155-259): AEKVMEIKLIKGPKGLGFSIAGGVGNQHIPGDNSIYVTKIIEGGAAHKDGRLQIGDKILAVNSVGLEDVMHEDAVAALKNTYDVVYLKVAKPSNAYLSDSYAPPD
Chain of Inadl_6, Q8NI35 (Q8NI35 1058-1167): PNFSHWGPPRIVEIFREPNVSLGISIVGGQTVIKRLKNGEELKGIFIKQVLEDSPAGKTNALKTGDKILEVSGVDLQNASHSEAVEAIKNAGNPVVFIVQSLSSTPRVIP
Chain of GRASP, Q7Z6J2 (Q7Z6J2 96-193): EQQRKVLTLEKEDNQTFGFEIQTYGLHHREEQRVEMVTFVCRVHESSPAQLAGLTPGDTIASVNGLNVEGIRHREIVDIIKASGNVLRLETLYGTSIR
Chain of PDZRN4_1, Q6ZMN7 (Q6ZMN7 213-318): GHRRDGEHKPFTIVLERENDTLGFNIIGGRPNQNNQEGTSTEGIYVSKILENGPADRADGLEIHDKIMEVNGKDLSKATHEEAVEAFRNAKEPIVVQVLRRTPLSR
Chain of FRMPD3, Q5JV73 (Q5JV73 12-100): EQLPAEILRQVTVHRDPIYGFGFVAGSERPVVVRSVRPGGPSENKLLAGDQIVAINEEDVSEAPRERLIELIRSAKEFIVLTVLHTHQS
Chain of DLG2_2, Q15700 (Q15700 189-283): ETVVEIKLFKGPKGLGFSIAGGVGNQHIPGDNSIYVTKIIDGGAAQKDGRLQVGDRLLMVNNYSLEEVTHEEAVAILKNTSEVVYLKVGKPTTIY
Chain of LNX1_2, Q8TBB1 (Q8TBB1 371-470): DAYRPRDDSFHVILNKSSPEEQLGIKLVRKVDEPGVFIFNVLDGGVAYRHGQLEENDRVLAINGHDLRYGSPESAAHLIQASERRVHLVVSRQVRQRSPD

B1: HPV18-E6, P06463 (peptide)
chain: RLQRRRETQV
For B1, the pKd (Inadl_6, Q8NI35; [1]) was “below the threshold”, the pKd (SIPA1L2, Q9P2F8; [1]) was “below the threshold” and the pKd (LNX1_2, Q8TBB1; [1]) was “below the threshold”. The pKd (FRMPD3, Q5JV73; [1]) was “below the threshold”, the pKd (SCRIB_3, Q14160; [1]) was 4.84 and the pKd (MPP2, Q14168; [1]) was “below the threshold”. The pKd (ARHGAP21, Q5T5U3; [1]) was “below the threshold”, the pKd (SNTG2, Q9NY99; [1]) was 4.03 and the pKd (AHNAK1, Q09666; [1]) was “below the threshold”. The pKd (GRASP, Q7Z6J2; [1]) was “below the threshold”, the pKd (PTPN13_1, Q12923; [1]) was “below the threshold” and the pKd (SHANK1, Q9Y566; [1]) was “below the threshold”. For the same binder, the pKd (SCRIB_2, Q14160; [1]) was 4.44, the pKd (SYNJ2BP, P57105; [1]) was 5.35 and the pKd (LRRC7, Q96NW7; [1]) was 3.14. For the same binder, the pKd (SCRIB_1, Q14160; [1]) was 4.26, the pKd (PTPN3, P26045; [1]) was 4.49 and the pKd (DLG3_3, Q92796; [1]) was 5.44. For the same binder, the pKd (DLG3_2, Q92796; [1]) was 5.46, the pKd (NHERF2_2, Q15599; [1]) was “below the threshold” and the pKd (DLG2_2, Q15700; [1]) was 5.19. The pKd (NHERF4_2, Q86UT5; [1]) was “below the threshold”, the pKd (TJP3_3, O95049; [1]) was “below the threshold” and the pKd (DLG4_2, P78352; [1]) was 5.46. The pKd (DFNB31_1, Q9P202; [1]) was “below the threshold” and the pKd (PDZRN4_1, Q6ZMN7; [1]) was 4.48.

B2: FRMPD4, Q14CM0 (peptide)
chain: RLPKIKETTV
B2 was tested, and the pKd (Inadl_6, Q8NI35; [1]) was “below the threshold”, the pKd (SIPA1L2, Q9P2F8; [1]) was “below the threshold” and the pKd (LNX1_2, Q8TBB1; [1]) was 3.42. The pKd (FRMPD3, Q5JV73; [1]) was “below the threshold”, the pKd (SCRIB_3, Q14160; [1]) was 4.88 and the pKd (MPP2, Q14168; [1]) was “below the threshold”. The pKd (ARHGAP21, Q5T5U3; [1]) was “below the threshold”, the pKd (SNTG2, Q9NY99; [1]) was 5.3 and the pKd (AHNAK1, Q09666; [1]) was “below the threshold”. The pKd (GRASP, Q7Z6J2; [1]) was 3.47, the pKd (PTPN13_1, Q12923; [1]) was “below the threshold” and the pKd (SHANK1, Q9Y566; [1]) was “below the threshold”. It also gave a pKd (SCRIB_2, Q14160; [1]) of 4.61, a pKd (SYNJ2BP, P57105; [1]) of 5.47 and a pKd (LRRC7, Q96NW7; [1]) of 3.58. For the same binder, the pKd (SCRIB_1, Q14160; [1]) was 4.95, the pKd (PTPN3, P26045; [1]) was 4.89 and the pKd (DLG3_3, Q92796; [1]) was 5.21. For the same binder, the pKd (DLG3_2, Q92796; [1]) was 5.6, the pKd (NHERF2_2, Q15599; [1]) was “below the threshold” and the pKd (DLG2_2, Q15700; [1]) was 5.5. The pKd (NHERF4_2, Q86UT5; [1]) was “below the threshold”, the pKd (TJP3_3, O95049; [1]) was “below the threshold” and the pKd (DLG4_2, P78352; [1]) was 5.6. For the same binder, the pKd (DFNB31_1, Q9P202; [1]) was 3.96 and the pKd (PDZRN4_1, Q6ZMN7; [1]) was 4.67.

B3: TJP3, O95049 (peptide)
chain: GYDWGPATDL
With B3 the pKd (Inadl_6, Q8NI35; [2]) was 4.8, the pKd (SIPA1L2, Q9P2F8; [2]) was “below the threshold” and the pKd (LNX1_2, Q8TBB1; [2]) was “below the threshold”. The pKd (FRMPD3, Q5JV73; [2]) was “below the threshold”, the pKd (SCRIB_3, Q14160; [2]) was 4.93 and the pKd (MPP2, Q14168; [2]) was “below the threshold”. The pKd (ARHGAP21, Q5T5U3; [2]) was “below the threshold”, the pKd (SNTG2, Q9NY99; [2]) was 4.32 and the pKd (AHNAK1, Q09666; [2]) was “below the threshold”. The pKd (GRASP, Q7Z6J2; [2]) was 4.14, the pKd (PTPN13_1, Q12923; [2]) was “below the threshold” and the pKd (SHANK1, Q9Y566; [2]) was 4.39. For the same binder, the pKd (SCRIB_2, Q14160; [2]) was 3.78, the pKd (SYNJ2BP, P57105; [2]) was “below the threshold” and the pKd (LRRC7, Q96NW7; [2]) was 3.7. For the same binder, the pKd (SCRIB_1, Q14160; [2]) was 3.76, the pKd (PTPN3, P26045; [2]) was 4.27 and the pKd (DLG3_3, Q92796; [2]) was “below the threshold”. The pKd (DLG3_2, Q92796; [2]) was 3.78, the pKd (NHERF2_2, Q15599; [2]) was 4.64 and the pKd (DLG2_2, Q15700; [2]) was “below the threshold”. The pKd (NHERF4_2, Q86UT5; [2]) was “below the threshold”, the pKd (TJP3_3, O95049; [2]) was “below the threshold” and the pKd (DLG4_2, P78352; [2]) was 3.68. For the same binder, the pKd (DFNB31_1, Q9P202; [2]) was 4.11 and the pKd (PDZRN4_1, Q6ZMN7; [2]) was “below the threshold”.
